# Laboratory results published in publication PMC6370476.
# Molecular target: SpyTag-γPFD-Cys (not stated | Methanocaldococcus jannaschii)
# Assay: leaching of fluorescent protein from the hydrogel, fluorescence of the buffer
substance,measurement,value
SpyCatcher-mCerulean3,percent leached from the hydrogel after two weeks,35%
